Laboratory results: patent US20140323691A1

What was measured:
[1] = biological target: BxpB (exosporium basal layer protein) (Bacillus anthracis)
[2] = biological target: BxpB (exosporium basal layer protein) (Bacillus anthracis); test: LC-MS/MS and immunoblot analyses of BxpB-BclA and BxpB-(BclA NTD-eGFP) complexes
[3] = biological target: BxpB (exosporium basal layer protein) (Bacillus anthracis); test: densitometry of anti-BxpB and anti-eGFP immunoblots

Substance | frequency of multiple attachments [1] [%] | NTDs attached to a single molecule of BxpB (per molecule of BxpB) [2] | fusion proteins per molecule of BxpB (band 1) (per molecule of BxpB) [3] | fusion proteins per molecule of BxpB (band 2) (per molecule of BxpB) [3] | fusion proteins per molecule of BxpB (band 3) (per molecule of BxpB) [3]
BclA (collagen-like glycoprotein of the Bacillus anthracis exosporium nap) | 57 | < 3 |  |  | 
BclA NTD-enhanced green fluorescence protein (eGFP) fusion protein | 18 |  | 1 | 2 | 3
